Like-named read-outs stand apart in the source and are kept apart here.
Experiments:
[1] = Detergent collapse effect on 5768.4 SOSIP R6 gp140 preparation, BN-PAGE; type: physicochemical; details: 1 hour, room temperature
Protocol: FIG. 15: Detergent “collapse” effect on subtype B 5768.4 HMW aggregate. 0.24 ug of purified subtype B 5768.4 SOSIP R6 gp140 trimer was incubated with 0.05 or 0.1% Tween 20. In addition, similar incubations were performed with NP40, Triton X-100, and SDS (at a final concentration of 0.1%) or the trimer preparation was untreated. Reactions were separated on BN-PAGE and visualized by coomassie G-250 stain. Arrows indicate HMW aggregate, a2M contaminant, trimer and monomer proteins. M stands for the 669 k thyroglobulin and 440 k ferritin molecular weight protein standards.
Tween® 20 Dose effect: 1 ug of purified 5768.4 SOSIP R6 trimer was incubated with varying concentrations of Tween® 20 ranging from 0.1 to 0.0001% (v/v) and incubated for 1 hour at room temperature. Following incubation, samples were analyzed by BN-PAGE as described above. Detergent effect on 5768.4 SOSIP R6 gp140 trimer preparations: 0.24 ug of purified 5768.4 SOSIP R6 trimer was incubated with Triton X-100, NP-40, or SDS to a final detergent concentration of 0.1% (v/v) or with Tween® 20 at concentrations of 0.05 and 0.1% for 1 hour at room temperature. Following incubation, 4× BN-PAGE MOPS sample buffer was added and the samples were immediately analyzed on BN-PAGE at 150 V for 2 hours at room temperature, followed by Coomassie G-250 staining.

[2] = tested on: HIV-1KNH1144 Env-pseudotyped virus; assay: Env-pseudotyped HIV-1 neutralization assay, KNH1144 Env; type: cell-based; details: CCR5 inhibitors and RT inhibitor, read-out: Env-pseudotyped neutralization (50% endpoint) KNH1144
Protocol: (§1) FIGS. 4A-AF: Inhibition of infection by HIV-1JR-FL (filled circles) or HIV-1KNH1144 (open circles) Env-pseudotyped viruses by MAbs and fusion inhibitors. The viruses were incubated with the indicated concentrations of the inhibitors for 1 h prior to addition to U87.CD4.CCR5 cells. The luciferase content of cell lysates was determined after 3-4 days.
(§2) The generation and quantification of Env-pseudotyped HIV-1 viruses and their subsequent use in neutralization assays have been described previously.^45,65. U87.CD4.CCR5 target cells were used because the input pseudoviruses had the R5 phenotype. The amount of input pseudovirus was normalized by infectivity (virus titer). Virus infection was measured by determining luciferase expression in relative light units (RLU) in target cell lysates, according to the manufacturer's instructions (Promega, Madison, Wis.).
(§3) To assess the neutralization sensitivity of viruses bearing subtype A Env proteins, cytoplasmic tail-truncated gp140s from KER2008, KNH1144, KNH1207 and KNH1211 were co-expressed in trans with the pNL4/3.Luc plasmid to form single cycle, replication-incompetent pseudoviruses^72. Pseudovirions bearing the full-length Env protein from HIV-1JR-FL were also studied, for comparison.

[3] = tested on: HIV-1JR-FL Env-pseudotyped virus; assay: Env-pseudotyped HIV-1 neutralization assay, JR-FL Env; type: cell-based; details: CCR5 inhibitors and RT inhibitor, read-out: Env-pseudotyped neutralization (50% endpoint) JR-FL
Protocol: as §1, §2, §3

[4] = target: KER2008 gp120 (monomeric, subtype A) (HIV-1 KER2008, subtype A); assay: ELISA on D7324-captured gp120, half-maximal binding
[5] = target: KNH1144 gp120 (monomeric, subtype A) (HIV-1 KNH1144, subtype A); assay: as above
[6] = target: KNH1207 gp120 (monomeric, subtype A) (HIV-1 KNH1207, subtype A); assay: as above
[7] = target: KNH1211 gp120 (monomeric, subtype A) (HIV-1 KNH1211, subtype A); assay: as above
[8] = target: Q23-17 gp120 (monomeric, subtype A) (HIV-1 Q23-17, subtype A); assay: as above
[9] = target: gp120BaL (subtype B) (HIV-1 BaL, subtype B); assay: as above
[10] = target: gp120DU151 (subtype C) (HIV-1 DU151, subtype C); assay: as above
[11] = target: gp120JR-FL (monomeric, subtype B) (HIV-1 JR-FL, subtype B); assay: as above
[12] = Oligomeric stability of purified SOSIP gp140 trimers to detergents, BN-PAGE; type: physicochemical; details: 0.1% (v/v), 1 h, 25° C.
Protocol: Biophysical and antigenic characterization of purified trimers derived from KNH1144 SOSIP gp140. (A) Trimeric KNH1144 SOSIP gp140 was treated with 0.1% (v/v) ionic (SDS) and non-ionic (NP40, Nonidet-P40; Tw20 (Tween®-20); TX100 (Triton X-100) detergents for 1 h at 25° C. before BN-PAGE analysis. (B) Trimeric KNH1144 SOSIP gp140 was incubated with 0.5 μg/ml of the indicated MAbs or proteins, and then immunoprecipitated with protein G sepharose prior to analysis by SDS-PAGE.
The oligomeric stability of purified SOSIP gp140 trimers was determined essentially as previously described.^44 Briefly, 50 ng of protein was treated with 0.1% (v/v) SDS, Nonidet P-40, Tween®-20 or Triton X-100 for 1 h at room temperature, followed by analysis on BN-PAGE. The various oligomeric forms of Env resolved on the gel were detected by CA13 immunoblotting.
A purified Env trimer should meet several criteria to establish that it has been synthesized, folded, cleaved and otherwise post-translationally modified correctly. For example, it is important to establish that SOSIP gp140 trimers are oligomerized via non-covalent interactions between the gp41ECTO subunits, and not via aberrant inter-subunit disulfide bonds^40,66,67. For these assessments, purified KNH1144 SOSIP gp140 trimers were treated for 1 h at 25° C. with 0.1% (v/v) ionic (SDS) and non-ionic (NP-40, Tween®-20, Triton X-100) detergents and then analyzed by BN-PAGE. […] This is consistent with studies of JR-FL SOSIP gp140 trimers^44.

[13] = target: BB359 gp120 (monomeric, subtype A) (HIV-1 BB359, subtype A); assay: ELISA on D7324-captured gp120, half-maximal binding
[14] = target: HIV-1KER2008 Env on Env-pseudotyped virus (HIV-1 KER2008, subtype A); assay: cell-based or functional assay
[15] = target: HIV-1KNH1144 Env on Env-pseudotyped virus (HIV-1 KNH1144, subtype A); assay: cell-based or functional assay
[16] = target: HIV-1KNH1207 Env on Env-pseudotyped virus (HIV-1 KNH1207, subtype A); assay: cell-based or functional assay
[17] = target: HIV-1KNH1211 Env on Env-pseudotyped virus (HIV-1 KNH1211, subtype A); assay: cell-based or functional assay

5768.4 SOSIP R6 gp140: subtype B 5768.4 envelope modified to the soluble SOSIP R6 gp140 trimer; SEQ ID NO:10
effect of NP40 on HMW aggregate ([1]; 0.1%): collapse of HMW aggregate to trimer | effect of SDS ([1]; 0.1%): breaking down the entire 5768.4 gp140 protein to resulting monomers | effect of Triton X-100 on HMW aggregate ([1]; 0.1%): capable of collapsing HMW aggregate to trimer, however, some breakdown to monomeric 5768.4 was observed | effect of Tween (Tween 20 and Tween 80) on HMW aggregate ([1]; 0.1 and 0.05%): effectively collapsed HMW aggregate to trimers

Cc1cn([C@H]2C[C@H](N=[N+]=[N-])[C@@H](CO)O2)c(=O)[nH]c1=O [AZT]
IC50 [2]: 240 nM | IC50 [3]: 220 nM

CCO/N=C(\c1ccc(Br)cc1)C1CCN(C2(C)CCN(C(=O)c3c(C)cc[n+]([O-])c3C)CC2)CC1 [SCH-C]
IC50 ([2]; Human immunodeficiency virus 1): 0.04 nM | IC50 ([3]; Human immunodeficiency virus 1): 0.2 nM

COC[C@@H](c1ccc(C(F)(F)F)cc1)N1CCN(C2(C)CCN(C(=O)c3c(C)ncnc3C)CC2)C[C@@H]1C [SCH-D]
IC50 ([2]; Human immunodeficiency virus 1): 0.01 nM | IC50 ([3]; Human immunodeficiency virus 1): 0.1 nM

CD4-immunoglobulin G2 (CD4-IgG2) protein (from UniProt P01730 26-204) (Fc fusion)
EC50 [4]: 0.236 µg/mL | EC50 [5]: 0.103 µg/mL | EC50 [6]: 0.068 µg/mL | EC50 [7]: 0.063 µg/mL | EC50 [8]: 0.083 µg/mL | EC50 [9]: 0.057 µg/mL | EC50 [10]: 0.09 µg/mL | EC50 [11]: 0.046 µg/mL

KNH1144 SOSIP gp140: soluble, disulfide-stabilized, I571P-modified cleaved trimeric gp140 of HIV-1 subtype A KNH1144
adverse effects of NP-40 on trimers [12]: little | adverse effects of Triton X-100 on trimers [12]: little | adverse effects of Tween-20 on trimers [12]: no | effect of SDS on trimers [12]: completely dissociate into dimers and monomers

MAb CA13 (ARP 3119) (antibody)
EC50 [13]: 0.406 µg/mL | EC50 [4]: 1.57 µg/mL | EC50 [5]: 0.636 µg/mL | EC50 [6]: 0.337 µg/mL | EC50 [7]: 0.176 µg/mL | EC50 [8]: 0.094 µg/mL | EC50 [9]: 0.059 µg/mL | EC50 [10]: 0.043 µg/mL | EC50 [11]: > 9 µg/mL

human monoclonal IgG 2F5 (antibody)
IC50, neutralization of Env-pseudotyped virus [14]: > 3 µg/mL | IC50, neutralization of Env-pseudotyped virus [15]: > 3 µg/mL | IC50, neutralization of Env-pseudotyped virus [16]: 0.01 µg/mL | IC90, neutralization of Env-pseudotyped virus [16]: 0.21 µg/mL | IC50, neutralization of Env-pseudotyped virus [17]: 0.03 µg/mL | IC90, neutralization of Env-pseudotyped virus [17]: 0.99 µg/mL

human monoclonal IgG 2G12 (antibody)
EC50 [13]: > 1 µg/mL | EC50 [4]: 0.064 µg/mL | EC50 [5]: > 1 µg/mL | EC50 [6]: 0.478 µg/mL | EC50 [7]: > 1 µg/mL | EC50 [8]: 0.54 µg/mL | EC50 [9]: 0.012 µg/mL | EC50 [10]: > 1 µg/mL | EC50 [11]: 0.061 µg/mL

human monoclonal IgG b12 (antibody)
IC90, neutralization of Env-pseudotyped virus [14]: > 3 µg/mL | IC90, neutralization of Env-pseudotyped virus [15]: > 3 µg/mL | IC50, neutralization of Env-pseudotyped virus [16]: 0.21 µg/mL | IC90, neutralization of Env-pseudotyped virus [16]: 0.9 µg/mL | IC50, neutralization of Env-pseudotyped virus [17]: 1.14 µg/mL | IC90, neutralization of Env-pseudotyped virus [17]: 1.9 µg/mL | EC50 [13]: > 1 µg/mL | EC50 [4]: > 1 µg/mL | EC50 [5]: 0.642 µg/mL | EC50 [6]: 0.092 µg/mL | EC50 [7]: 0.033 µg/mL | EC50 [8]: > 1 µg/mL | EC50 [9]: 0.015 µg/mL | EC50 [10]: 0.018 µg/mL | EC50 [11]: 0.027 µg/mL

From patent publication US20110076298A1, “Soluble stabilized trimeric hiv env proteins and uses thereof” (priority 2006, published 2011)
